According to paper PMC3825537:

Molecular target: monomeric photosystem II complex (His-tagged PsbE) (Nicotiana tabacum | Nicotiana tabacum (endogenous in leaves)) (UniProt P69384)
Experiment: native gel or EMSA; BN-PAGE (3-12 % gradient, 205 V, 5 h, 4 °C) of PSII purified by protocol A

stoichiometry N: 2
Substance: monomeric photosystem II complex (His-tagged PsbE) (from UniProt P69384 1-83; P69556 1-344)
